Columns and labels:
[1] = target: Papain from papaya latex (Sigma) (papaya) (UniProt P00784)
[2] = target: Papain from papaya latex (Sigma) (papaya) (UniProt P00784); remark: listed apart in the source

Row | protease activity (% of papain alone), Protease Assay Kit [1] [%] | protease activity (OD), Protease Assay Kit [2] [OD] | Substance
1 | 64.3 | – | Recombinant human Cystatin SA protein (recombinant CST2, Abcam)
2 | – | 0.0005 | Recombinant Human Cystatin SN Protein (recombinant CST1, R&D Systems)

Source: patent US20230159659A1
